# Test results reported in US20250076311A1 (Chugai, published 2025).
# Numbering of substitutions follows the chain as printed. Numbers in names are those of the source.
# T1: human FcγRIIaH extracellular domain, His-tagged (human, UniProt P12318 34-217)
# T1 construct: also called human FcgRIIaH; FcγRIIa type H
# T1 sequence: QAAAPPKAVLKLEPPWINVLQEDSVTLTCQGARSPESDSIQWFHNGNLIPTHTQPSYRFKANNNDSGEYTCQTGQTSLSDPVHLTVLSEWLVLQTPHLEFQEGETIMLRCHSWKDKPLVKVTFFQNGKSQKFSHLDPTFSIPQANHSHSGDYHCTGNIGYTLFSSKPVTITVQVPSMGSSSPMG
# T2: human FcγRIIaR extracellular domain, His-tagged (human, UniProt P12318 34-217)
# T2 construct: also called human FcgRIIaR; FcγRIIa type R
# T2 chain: T1 sequence with H134R
# T3: human FcγRIIb extracellular domain, His-tagged (human, UniProt P31994 43-217)
# T3 construct: also called human FcgRIIb
# T3 sequence: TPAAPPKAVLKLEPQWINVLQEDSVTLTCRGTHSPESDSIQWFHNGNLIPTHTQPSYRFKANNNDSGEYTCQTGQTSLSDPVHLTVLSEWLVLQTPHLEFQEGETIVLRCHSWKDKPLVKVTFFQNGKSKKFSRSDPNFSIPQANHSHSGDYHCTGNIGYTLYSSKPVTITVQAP
# T4: human FcγRIIb extracellular domain with C-terminal His-tag (human, UniProt P31994 43-217)
# T4 construct: also called human FcgRIIb; not shown: His-tag added to C-terminus
# T4 sequence: T3 sequence
# B1: GpH7-B3 H268D / GpL16-k0 (antibody, human IgG1, kappa)
# heavy: not shown
# light: DIVMTQSPLSLPVTPGEPASISCQASESLVHSNRNTYLHWYLQKPGQSPQLLIYKVSNRFSGVPDRFSGSGSGTDFTLKISRVEAEDVGVYYCSQNTHVPPTFGQGTKVEIERTVAAPSVFIFPPSDEQLKSGTASVVCLLNNFYPREAKVQWKVDNALQSGNSQESVTEQDSKDSTYSLSSTLTLSKADYEKHKVYACEVTHQGLSSPVTKSFNRGEC
# notes: also called B3 variant H268D
# B2: GpH7-B3 K334I / GpL16-k0 (antibody, human IgG1, kappa)
# heavy: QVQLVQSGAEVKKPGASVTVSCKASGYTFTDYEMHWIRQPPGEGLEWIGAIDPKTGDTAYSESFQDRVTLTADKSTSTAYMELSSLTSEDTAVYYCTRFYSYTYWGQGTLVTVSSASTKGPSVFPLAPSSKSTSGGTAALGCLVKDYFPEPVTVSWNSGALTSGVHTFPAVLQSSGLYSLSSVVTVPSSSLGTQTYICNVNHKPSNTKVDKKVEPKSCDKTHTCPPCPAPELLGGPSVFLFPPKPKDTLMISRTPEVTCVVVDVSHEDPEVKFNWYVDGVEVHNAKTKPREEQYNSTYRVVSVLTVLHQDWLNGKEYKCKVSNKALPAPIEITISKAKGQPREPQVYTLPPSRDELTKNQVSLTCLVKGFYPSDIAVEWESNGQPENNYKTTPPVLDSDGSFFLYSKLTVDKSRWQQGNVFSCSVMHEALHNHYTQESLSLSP
# light: B1 light
# notes: also called B3 variant K334I
# B3: GpH7-B3 L328T / GpL16-k0 (antibody, human IgG1, kappa)
# heavy: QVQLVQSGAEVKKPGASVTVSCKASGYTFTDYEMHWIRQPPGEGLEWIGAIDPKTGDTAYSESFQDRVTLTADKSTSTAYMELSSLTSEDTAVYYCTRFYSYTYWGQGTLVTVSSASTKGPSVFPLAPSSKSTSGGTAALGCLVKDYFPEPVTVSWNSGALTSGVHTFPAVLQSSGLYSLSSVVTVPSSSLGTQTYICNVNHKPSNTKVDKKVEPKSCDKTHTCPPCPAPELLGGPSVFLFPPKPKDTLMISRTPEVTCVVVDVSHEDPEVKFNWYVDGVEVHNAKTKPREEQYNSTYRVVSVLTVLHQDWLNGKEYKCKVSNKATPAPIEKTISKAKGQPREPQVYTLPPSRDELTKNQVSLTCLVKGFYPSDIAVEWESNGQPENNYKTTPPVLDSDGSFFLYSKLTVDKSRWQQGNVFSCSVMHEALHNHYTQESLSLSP
# light: B1 light
# notes: also called B3 variant L328T
# B4: GpH7-B3 K334V / GpL16-k0 (antibody, human IgG1, kappa)
# heavy: not shown
# light: B1 light
# notes: also called B3 variant K334V
# B5: GpH7-B3 K334M / GpL16-k0 (antibody, human IgG1, kappa)
# heavy: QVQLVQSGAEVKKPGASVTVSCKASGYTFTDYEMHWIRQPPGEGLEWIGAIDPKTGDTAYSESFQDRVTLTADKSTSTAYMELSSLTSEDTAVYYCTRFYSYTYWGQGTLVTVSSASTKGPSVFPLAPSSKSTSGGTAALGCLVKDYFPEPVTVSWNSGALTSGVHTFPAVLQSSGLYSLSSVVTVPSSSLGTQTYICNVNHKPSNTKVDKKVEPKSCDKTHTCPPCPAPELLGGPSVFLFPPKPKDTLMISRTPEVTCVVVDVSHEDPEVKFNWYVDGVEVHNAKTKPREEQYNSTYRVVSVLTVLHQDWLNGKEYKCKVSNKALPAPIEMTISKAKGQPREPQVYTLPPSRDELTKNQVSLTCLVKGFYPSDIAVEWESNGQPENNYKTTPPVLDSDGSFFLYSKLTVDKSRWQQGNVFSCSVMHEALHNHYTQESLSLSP
# light: B1 light
# notes: also called B3 variant K334M
# B6: GpH7-B3 P271G / GpL16-k0 (antibody, human IgG1, kappa)
# heavy: not shown
# light: B1 light
# notes: also called B3 variant P271G
# B7: GpH7-B3 I332D / GpL16-k0 (antibody, human IgG1, kappa)
# heavy: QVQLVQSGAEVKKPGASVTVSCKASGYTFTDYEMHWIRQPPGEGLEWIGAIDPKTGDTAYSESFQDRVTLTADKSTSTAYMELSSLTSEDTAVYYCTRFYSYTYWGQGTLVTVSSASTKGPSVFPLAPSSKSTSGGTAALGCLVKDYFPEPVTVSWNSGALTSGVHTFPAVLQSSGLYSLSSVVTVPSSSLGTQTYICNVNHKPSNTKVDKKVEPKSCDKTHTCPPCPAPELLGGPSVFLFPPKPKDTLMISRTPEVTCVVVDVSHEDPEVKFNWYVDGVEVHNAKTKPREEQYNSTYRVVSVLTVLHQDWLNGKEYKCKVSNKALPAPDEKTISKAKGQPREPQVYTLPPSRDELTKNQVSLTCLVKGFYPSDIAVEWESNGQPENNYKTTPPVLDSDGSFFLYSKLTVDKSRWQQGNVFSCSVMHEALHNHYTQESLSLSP
# light: B1 light
# notes: also called B3 variant I332D
# B8: GpH7-B3 H268E / GpL16-k0 (antibody, human IgG1, kappa)
# heavy: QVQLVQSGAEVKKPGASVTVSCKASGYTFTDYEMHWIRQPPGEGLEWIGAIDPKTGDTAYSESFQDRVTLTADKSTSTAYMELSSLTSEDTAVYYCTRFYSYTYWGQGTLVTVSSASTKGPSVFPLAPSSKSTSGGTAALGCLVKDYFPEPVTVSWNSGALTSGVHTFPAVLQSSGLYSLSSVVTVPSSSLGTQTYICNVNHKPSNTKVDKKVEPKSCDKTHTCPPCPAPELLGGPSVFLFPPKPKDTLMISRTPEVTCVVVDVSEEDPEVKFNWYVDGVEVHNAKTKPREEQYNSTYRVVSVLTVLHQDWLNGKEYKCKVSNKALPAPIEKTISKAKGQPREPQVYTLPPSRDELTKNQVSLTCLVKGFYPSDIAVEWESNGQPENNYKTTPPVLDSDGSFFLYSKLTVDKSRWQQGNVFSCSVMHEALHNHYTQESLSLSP
# light: B1 light
# notes: also called B3 variant H268E
# B9: GpH7-B3 K334Y / GpL16-k0 (antibody, human IgG1, kappa)
# heavy: not shown
# light: B1 light
# notes: also called B3 variant K334Y
# B10: GpH7-B3 Q295L / GpL16-k0 (antibody, human IgG1, kappa)
# heavy: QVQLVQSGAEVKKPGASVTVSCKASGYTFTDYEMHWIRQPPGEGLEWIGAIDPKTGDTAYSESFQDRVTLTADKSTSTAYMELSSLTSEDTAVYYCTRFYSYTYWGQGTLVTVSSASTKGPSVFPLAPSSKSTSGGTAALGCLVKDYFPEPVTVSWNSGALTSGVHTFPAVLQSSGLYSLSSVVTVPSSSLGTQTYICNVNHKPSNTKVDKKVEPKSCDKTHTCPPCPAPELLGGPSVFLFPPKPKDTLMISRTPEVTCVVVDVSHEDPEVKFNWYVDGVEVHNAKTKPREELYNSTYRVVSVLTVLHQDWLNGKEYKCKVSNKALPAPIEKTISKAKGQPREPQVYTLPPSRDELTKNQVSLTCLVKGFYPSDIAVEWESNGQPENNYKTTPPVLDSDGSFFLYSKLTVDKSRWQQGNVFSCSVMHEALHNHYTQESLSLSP
# light: B1 light
# notes: also called B3 variant Q295L
# B11: GpH7-B3 S267A / GpL16-k0 (antibody, human IgG1, kappa)
# heavy: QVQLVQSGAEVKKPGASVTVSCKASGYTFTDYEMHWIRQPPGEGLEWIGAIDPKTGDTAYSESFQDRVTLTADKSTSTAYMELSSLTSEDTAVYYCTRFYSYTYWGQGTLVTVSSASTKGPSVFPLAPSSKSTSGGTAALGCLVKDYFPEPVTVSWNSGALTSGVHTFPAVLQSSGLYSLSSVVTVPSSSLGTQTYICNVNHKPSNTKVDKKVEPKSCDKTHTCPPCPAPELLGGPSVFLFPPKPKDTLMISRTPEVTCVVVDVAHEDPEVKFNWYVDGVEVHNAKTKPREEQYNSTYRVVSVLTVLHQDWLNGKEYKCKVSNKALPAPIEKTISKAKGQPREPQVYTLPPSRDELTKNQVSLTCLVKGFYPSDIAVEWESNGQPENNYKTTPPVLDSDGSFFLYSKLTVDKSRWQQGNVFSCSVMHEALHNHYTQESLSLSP
# light: B1 light
# notes: also called B3 variant S267A
# B12: GpH7-B3 S239N / GpL16-k0 (antibody, human IgG1, kappa)
# heavy: not shown
# light: B1 light
# notes: also called B3 variant S239N
# B13: GpH7-B3 S239I / GpL16-k0 (antibody, human IgG1, kappa)
# heavy: not shown
# light: B1 light
# notes: also called B3 variant S239I
# B14: GpH7-B3 S298L / GpL16-k0 (antibody, human IgG1, kappa)
# heavy: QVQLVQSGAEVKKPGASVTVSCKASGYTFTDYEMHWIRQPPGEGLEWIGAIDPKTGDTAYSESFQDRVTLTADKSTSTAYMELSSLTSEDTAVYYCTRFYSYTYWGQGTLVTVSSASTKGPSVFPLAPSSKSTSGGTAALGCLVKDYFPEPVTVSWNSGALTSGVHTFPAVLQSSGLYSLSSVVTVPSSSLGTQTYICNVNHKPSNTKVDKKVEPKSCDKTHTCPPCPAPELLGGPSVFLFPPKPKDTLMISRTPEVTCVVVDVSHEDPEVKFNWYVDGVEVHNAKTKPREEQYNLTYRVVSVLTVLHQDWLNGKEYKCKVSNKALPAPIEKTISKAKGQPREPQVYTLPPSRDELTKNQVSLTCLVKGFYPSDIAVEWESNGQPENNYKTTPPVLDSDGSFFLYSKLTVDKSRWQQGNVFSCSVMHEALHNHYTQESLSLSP
# light: B1 light
# notes: also called B3 variant S298L
# B15: GpH7-B3 L234Y / GpL16-k0 (antibody, human IgG1, kappa)
# heavy: not shown
# light: B1 light
# notes: also called B3 variant L234Y
# B16: GpH7-B3 L235W / GpL16-k0 (antibody, human IgG1, kappa)
# heavy: not shown
# light: B1 light
# notes: also called B3 variant L235W
# B17: GpH7-B3 K334D / GpL16-k0 (antibody, human IgG1, kappa)
# heavy: not shown
# light: B1 light
# notes: also called B3 variant K334D
# B18: GpH7-B3 S239V / GpL16-k0 (antibody, human IgG1, kappa)
# heavy: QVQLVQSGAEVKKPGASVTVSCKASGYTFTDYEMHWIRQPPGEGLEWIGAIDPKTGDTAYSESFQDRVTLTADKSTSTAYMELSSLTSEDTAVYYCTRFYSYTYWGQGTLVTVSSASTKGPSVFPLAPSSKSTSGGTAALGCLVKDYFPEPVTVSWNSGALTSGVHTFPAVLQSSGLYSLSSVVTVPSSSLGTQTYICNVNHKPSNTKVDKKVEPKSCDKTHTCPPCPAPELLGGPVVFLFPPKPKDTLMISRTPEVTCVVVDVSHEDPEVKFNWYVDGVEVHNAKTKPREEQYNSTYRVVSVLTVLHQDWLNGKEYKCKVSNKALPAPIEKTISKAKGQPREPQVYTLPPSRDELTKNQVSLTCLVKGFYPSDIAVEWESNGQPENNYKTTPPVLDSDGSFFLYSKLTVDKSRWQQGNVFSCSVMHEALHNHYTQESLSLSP
# light: B1 light
# notes: also called B3 variant S239V
# B19: GpH7-B3 K326T / GpL16-k0 (antibody, human IgG1, kappa)
# heavy: not shown
# light: B1 light
# notes: also called B3 variant K326T
# B20: GpH7-B3 L234W / GpL16-k0 (antibody, human IgG1, kappa)
# heavy: not shown
# light: B1 light
# notes: also called B3 variant L234W
# B21: GpH7-B3 P331E / GpL16-k0 (antibody, human IgG1, kappa)
# heavy: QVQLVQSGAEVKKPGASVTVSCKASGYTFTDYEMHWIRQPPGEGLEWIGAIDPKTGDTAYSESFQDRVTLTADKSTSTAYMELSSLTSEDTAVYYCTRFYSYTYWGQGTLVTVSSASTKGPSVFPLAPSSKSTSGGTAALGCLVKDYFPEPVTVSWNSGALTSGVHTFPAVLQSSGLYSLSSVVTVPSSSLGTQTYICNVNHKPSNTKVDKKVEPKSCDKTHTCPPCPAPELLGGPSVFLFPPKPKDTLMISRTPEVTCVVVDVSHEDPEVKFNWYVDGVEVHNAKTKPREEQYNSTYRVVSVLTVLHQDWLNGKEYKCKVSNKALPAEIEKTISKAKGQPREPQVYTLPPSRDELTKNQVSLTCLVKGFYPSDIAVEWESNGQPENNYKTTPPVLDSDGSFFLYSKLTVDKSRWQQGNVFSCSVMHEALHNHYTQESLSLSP
# light: B1 light
# notes: also called B3 variant P331E
# B22: M103205H795-MY201/M103202L889-SK1 (antibody, human IgG1, kappa)
# heavy: QVTLKESGPVLVKPTETLTLTCTVSGIDLSHDDISWVRQAPGKGLEWVGIISYAGSTYYASWAKGRLTISKDTSKNQVVLTMTNMDPVDTATYYCARGVPAYSHGGDLWGQGTLVTVSSASTKGPSVFPLAPSSKSTSGGTAALGCLVKDYFPEPVTVSWNSGALTSGVHTFPAVLQSSGLYSLSSVVTVPSSSLGTQTYICNVNHKPSNTKVDKKVEPKSCDKTHTCPPCPAPELLNGPSVFLFPPKPKDTLMISRTPEVTCVVVDVSDEDPEVKFNWYVDGVEVHNAKTKPREEQYNSTYRVVSVLTVLHQDWLNGKEYKCKVSNKALPKPIEKTISKAKGQPREPQVYTLPPSREEMTKNQVSLTCLVKGFYPSDIAVEWESNGQPENNYKTTPPVLDSDGSFFLYSKLTVDKSRWQQGNVFSCSVMHEALHNHYTQKSLSLSP
# light: DIVMTQSPATLSLSPGERATLSCTSSQSVYHANWLSWFQQKPGQPPKLLIYWASTLAYGVPSRFSGSGSGTDFTLTISSLQPEDAATYYCAGGYGGGRYAFGQGTKVEIKRTVAAPSVFIFPPSDEQLKSGTASVVCLLNNFYPREAKVQWKVDNALQSGNSQESVTEQDSKDSTYSLSSTLTLSKADYEKHKVYACEVTHQGLSSPVTKSFNRGEC
# notes: also called MS1032LO06-MY201
# B23: M103205H795-MY205/M103202L889-SK1 (antibody, human IgG1, kappa)
# heavy: B22 heavy with Q297L
# light: B22 light
# notes: also called MS1032LO06-MY205
# Biological target: T5, human FcγRIIIaV extracellular domain, His-tagged (human, UniProt P08637 17-208)
# T5 construct: also called human FcgRIIIaV
# T5 sequence (P08637 17-208 F176V): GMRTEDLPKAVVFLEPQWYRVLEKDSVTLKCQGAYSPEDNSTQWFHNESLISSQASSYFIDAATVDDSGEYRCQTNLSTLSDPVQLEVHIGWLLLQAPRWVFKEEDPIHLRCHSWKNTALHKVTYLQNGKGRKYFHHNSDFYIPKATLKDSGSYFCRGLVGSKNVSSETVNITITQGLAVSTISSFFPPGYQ
# Test: SPR (Biacore), 25C, FcgR bound per antibody captured
row,Binding to human FcgRs (parent B3 = 100),Binder
1,220,B1
2,187,B2
3,53,B3
4,176,B4
5,183,B5
6,93,B6
7,235,B7
8,205,B8
9,188,B9
10,135,B10
11,145,B11
12,111,B12
13,47,B13
14,51,B14
15,63,B15
16,40,B16
17,155,B17
18,48,B18
19,164,B19
20,36,B20
21,46,B21

# Biological target: T1, human FcγRIIaH extracellular domain, …
# Test: as above
row,Binding to human FcgRs (parent B3 = 100),Binder
1,173,B1
2,169,B2
3,156,B3
4,172,B4
5,151,B5
6,152,B6
7,129,B7
8,169,B8
9,157,B9
10,128,B10
11,176,B11
12,99,B12
13,82,B13
14,99,B14
15,38,B15
16,136,B16
17,97,B17
18,79,B18
19,138,B19
20,64,B20
21,96,B21

# Biological target: T2, human FcγRIIaR extracellular domain, …
# Test: as above
row,Binding to human FcgRs (parent B3 = 100),Binder
1,142,B1
2,137,B2
3,135,B3
4,132,B4
5,127,B5
6,130,B6
7,139,B7
8,132,B8
9,131,B9
10,148,B10
11,125,B11
12,80,B12
13,75,B13
14,71,B14
15,50,B15
16,128,B16
17,72,B17
18,71,B18
19,127,B19
20,63,B20
21,67,B21

# Biological target: T3, human FcγRIIb extracellular domain, …
# Test: as above
row,Binding to human FcgRs (parent B3 = 100),Binder
1,307,B1
2,174,B2
3,179,B3
4,184,B4
5,148,B5
6,252,B6
7,198,B7
8,283,B8
9,160,B9
10,156,B10
11,283,B11
12,124,B12
13,108,B13
14,114,B14
15,55,B15
16,130,B16
17,108,B17
18,107,B18
19,195,B19
20,90,B20
21,100,B21

# Biological target: T4, human FcγRIIb extracellular domain with …
# Test: SPR Biacore, antibody captured, FcgR analyte
# Method: (§1) The kinetic analysis of interactions between these antibodies and FcγR was carried out using BIACORE® T200 or BIACORE® 4000 (GE Healthcare). HBS-EP+ (GE Healthcare) was used as the running buffer, and the measurement temperature was set to 25° C. […] After the measurement, the antibody captured on the chip was washed off by allowing reaction with 10 mM glycine-HCl, pH1.5 and 25 mM NaOH so that the chip was regenerated and used repeatedly. The sensorgrams obtained as measurement results were analyzed by the 1:1 Langmuir binding model using the BIACORE® Evaluation Software to calculate the binding rate constant ka (L/mol/s) and dissociation rate constant kd (1/s), and the dissociation constant KD (mol/L) was calculated from these values. […] Regarding such interactions, KD values were calculated using the following 1:1 binding model described in BIACORE® T100 Software Handbook BR1006-48 Edition AE.
row,KD fold (SG1 = 1),Binder
1,4.7 fold,B22
2,8.7 fold,B23

# Biological target: T6, cynomolgus monkey FcγRIIIaS extracellular domain with C-terminal His-tag (cynomolgus monkey, UniProt A3RFZ7 21-206 (rhesus entry))
# T6 construct: also called cyno FcgRIIIaS; cynoFcγRIIIaS; not shown: His-tag added to C-terminus
# T6 sequence (A3RFZ7 21-206): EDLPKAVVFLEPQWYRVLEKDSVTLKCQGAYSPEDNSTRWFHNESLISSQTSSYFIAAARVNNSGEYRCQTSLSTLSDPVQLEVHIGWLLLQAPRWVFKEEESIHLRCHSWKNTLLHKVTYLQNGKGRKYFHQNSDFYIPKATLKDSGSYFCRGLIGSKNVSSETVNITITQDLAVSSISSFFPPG
# Test: SPR Biacore, antibody captured, FcgR analyte
# Method: as §1
row,KD fold (SG1 = 1),Binder
1,0.08 fold,B23
